Values of other authors in paper PMC3902607.

Target: RXFP2 (Homo sapiens) (UniProt Q8WXD0)
Sequence of UniProt Q8WXD0 (Q8WXD0 whole entry): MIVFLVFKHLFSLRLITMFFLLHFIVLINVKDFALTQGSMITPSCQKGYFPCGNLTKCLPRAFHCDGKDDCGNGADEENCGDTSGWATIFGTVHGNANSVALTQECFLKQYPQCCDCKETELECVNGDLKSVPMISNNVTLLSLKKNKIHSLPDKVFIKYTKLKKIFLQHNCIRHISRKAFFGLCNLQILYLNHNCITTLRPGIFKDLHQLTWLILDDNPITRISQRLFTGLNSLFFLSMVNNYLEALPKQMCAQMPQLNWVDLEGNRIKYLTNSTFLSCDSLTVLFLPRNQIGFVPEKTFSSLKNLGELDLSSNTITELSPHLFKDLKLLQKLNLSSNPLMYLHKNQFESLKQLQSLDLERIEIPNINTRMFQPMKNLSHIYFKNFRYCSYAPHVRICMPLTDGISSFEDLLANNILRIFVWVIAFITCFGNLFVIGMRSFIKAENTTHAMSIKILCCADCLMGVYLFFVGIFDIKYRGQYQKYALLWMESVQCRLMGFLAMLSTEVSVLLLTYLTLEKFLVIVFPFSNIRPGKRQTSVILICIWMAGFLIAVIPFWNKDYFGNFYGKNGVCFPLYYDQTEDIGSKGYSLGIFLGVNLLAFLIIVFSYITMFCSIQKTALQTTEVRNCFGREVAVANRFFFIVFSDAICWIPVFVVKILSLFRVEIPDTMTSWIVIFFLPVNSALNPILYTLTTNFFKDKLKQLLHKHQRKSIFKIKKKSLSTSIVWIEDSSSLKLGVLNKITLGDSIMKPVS

Kd: < 1 nM
Substance: INSL3 (from UniProt P51460)
